In the supplement of paper PMC10126150:
± gives the standard deviation of the averaged measurements.
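Note: ATP exposure 15 min at 22 °C before imaging.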

Each sequence was assayed on ATP (assay: switch fluorescence ratio, 500 uM ATP over buffer (Cy3 cluster intensity, sum of 5 cycles each) (fold (ratio)); higher = stronger signal-on switching upon ATP binding; sequences stand for … in TCGTCGGCAGCGTCAGATGTGTATAAGAGACAGTTTTTTTTTTTTTTTTTTTTTTTTT…TC). Conditions: aptamer strand: ATP DNA aptamer (quencher-CACCTGGGGGAGTATTGCGGAGGAAGG + anchor), 100 nM annealed; ATP concentration: 500 uM.
Summary of the method: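 The quencher-labelled ATP aptamer, at 100 nM, was annealed to Cy3-labelled switching-strand clusters on a modified Illumina MiSeq flow-cell. The clusters were imaged in selection buffer, then after 15 min with 500 uM ATP at 22 °C, and this buffer/ATP cycle ran five times with NaOH stripping and re-annealing between runs. Per-cluster fluorescence ratios, summed target-cycle over summed buffer-cycle Cy3 intensity, were averaged per switch-domain sequence. Clusters outside 100-1000 RFU were excluded.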
TATGGGGTCA was tested, and the switch fluorescence ratio was 0.979 ± 0.018. Work on GAGATTCTTG yielded a switch fluorescence ratio of 1 ± 0.02. Work on CGGGAAGCAC yielded a switch fluorescence ratio of 1.53 ± 0.34. GAAGTGTCGG was tested, and the switch fluorescence ratio was 1.005 ± 0.0057. In the case of TTAAGAAGCC, the switch fluorescence ratio is reported as 0.987 ± 0.049. TGAGGGGGTG gave a switch fluorescence ratio of 1 ± 0.029. Work on CATGTGCACC yielded a switch fluorescence ratio of 1.014 ± 0.0092. For CGCTCGTATT, the switch fluorescence ratio was 1.019 ± 0.009. With GAGGAAGTTT the switch fluorescence ratio was 1 ± 0.041. Sequence GGATTTGGCT has a switch fluorescence ratio of 0.999 ± 0.029. With ATAGGGACAC the switch fluorescence ratio was 1.07 ± 0.033. AATTTTTTCA showed a switch fluorescence ratio of 0.99 ± 0.018. In the case of GCAGGGGTTT, the switch fluorescence ratio is reported as 1.25 ± 0.48. For AAGGTTTGCC, the switch fluorescence ratio was 0.965 ± 0.028. GTGAGTATCG was tested, and the switch fluorescence ratio was 0.968 ± 0.0098. Work on GGTTTAAGGC yielded a switch fluorescence ratio of 0.993 ± 0.047. Sequence GCAAATGTGT has a switch fluorescence ratio of 0.969 ± 0.026. Work on TGACGGGGAT yielded a switch fluorescence ratio of 1.25 ± 0.33. Work on ATCAGACTTG yielded a switch fluorescence ratio of 1.023 ± 0.0012. With TTTAGGCAGG the switch fluorescence ratio was 0.988 ± 0.022. GACTATTAGG was tested, and the switch fluorescence ratio was 0.989 ± 0.029. TTTACTATAT was tested, and the switch fluorescence ratio was 1.04 ± 0.032. ACTAGCTACT was tested, and the switch fluorescence ratio was 1.138 ± 0.0094. Sequence TCCTCATGTT has a switch fluorescence ratio of 1.07 ± 0.032. ATTTTAATGG gave a switch fluorescence ratio of 0.9907 ± 0.0036. With AACAGTGTAT the switch fluorescence ratio was 1.01 ± 0.03. TGCGCCTTAC showed a switch fluorescence ratio of 3.37 ± 0.38. Sequence GGGGGAGGGT has a switch fluorescence ratio of 0.997 ± 0.036. With GTTGATTAGC the switch fluorescence ratio was 0.981 ± 0.077. In the case of TGGGGGGTCG, the switch fluorescence ratio is reported as 1.03 ± 0.051. In the case of CGGGGGGCTG, the switch fluorescence ratio is reported as 0.995 ± 0.04. With GGTCGTTGCT the switch fluorescence ratio was 0.9456 ± 0.0046. With TTATAGTTTG the switch fluorescence ratio was 0.997 ± 0.03. In the case of GGTGTGGAAT, the switch fluorescence ratio is reported as 1.02 ± 0.033. With CTACAAAGGG the switch fluorescence ratio was 1.005 ± 0.0037. TGTTGAAAAT gave a switch fluorescence ratio of 1.02 ± 0.048. AAAGAGTAAT showed a switch fluorescence ratio of 1.006 ± 0.0045. TTTGTGATAA showed a switch fluorescence ratio of 0.969 ± 0.057. ACGCCTTAGG showed a switch fluorescence ratio of 1.05 ± 0.038. Sequence TAGGAGAGAC has a switch fluorescence ratio of 0.998 ± 0.057. With GAGGGGCTTC the switch fluorescence ratio was 1 ± 0.016. Work on ATCATTGGTA yielded a switch fluorescence ratio of 1 ± 0.023. In the case of TGGGGGATTC, the switch fluorescence ratio is reported as 1.03 ± 0.067. With GAGGAACCTG the switch fluorescence ratio was 1.09 ± 0.0052. TTTGCAATG was tested, and the switch fluorescence ratio was 2.22 ± 1.6. In the case of GTCTGGGGTG, the switch fluorescence ratio is reported as 1.04 ± 0.021. Work on AGGAGGGGGT yielded a switch fluorescence ratio of 0.991 ± 0.033. Work on GATGCTTTTT yielded a switch fluorescence ratio of 1.02 ± 0.018. In the case of TCCGGCGGTT, the switch fluorescence ratio is reported as 1.01 ± 0.04. CTGGCTTTTG was tested, and the switch fluorescence ratio was 0.999 ± 0.017. ATGAGGGTCC showed a switch fluorescence ratio of 1.1 ± 0.032. In the case of CACCCCGGTT, the switch fluorescence ratio is reported as 1.12 ± 0.051. Sequence CACGGTGGGT has a switch fluorescence ratio of 0.9898 ± 0.0079. Sequence CAGTTCGGGA has a switch fluorescence ratio of 0.989 ± 0.02. In the case of ATTGATGTCC, the switch fluorescence ratio is reported as 0.976 ± 0.0098. With GACGACGACA the switch fluorescence ratio was 2.5 ± 0.092. For AGGTTGTGGG, the switch fluorescence ratio was 1.02 ± 0.022. TACACTGAAT gave a switch fluorescence ratio of 1.01 ± 0.038. GTAAGGCGCA showed a switch fluorescence ratio of 0.9885 ± 0.0086. Work on GTTACGTTAT yielded a switch fluorescence ratio of 1.13 ± 0.078. Work on CGTGTTGTTG yielded a switch fluorescence ratio of 1.02 ± 0.022. Sequence TTATCGGTGT has a switch fluorescence ratio of 0.968 ± 0.038. Work on CGGTTTTAGG yielded a switch fluorescence ratio of 1.0066 ± 0.00065. TGTTTGAAAA gave a switch fluorescence ratio of 0.953 ± 0.027. In the case of AGAGGCTGAT, the switch fluorescence ratio is reported as 0.983 ± 0.014. TACTTCGAGA gave a switch fluorescence ratio of 1.081 ± 0.0099. For TAGTCTCTTG, the switch fluorescence ratio was 1 ± 0.015. Sequence TCTAAGGCCC has a switch fluorescence ratio of 0.986 ± 0.011. AGGTTGTATG showed a switch fluorescence ratio of 0.97 ± 0.039. ACTGTGCGAC showed a switch fluorescence ratio of 1.58 ± 0.025. In the case of GACTATTTGG, the switch fluorescence ratio is reported as 1.02 ± 0.044. GCGAGCGGGT was tested, and the switch fluorescence ratio was 1 ± 0.016. Work on TTAGTGGGGG yielded a switch fluorescence ratio of 0.998 ± 0.029. In the case of TGGAATGGGG, the switch fluorescence ratio is reported as 1 ± 0.037. CGTCTTCCTG showed a switch fluorescence ratio of 1 ± 0.056. TTTTTATATT was tested, and the switch fluorescence ratio was 1.21 ± 0.44. TTAAGTTGAG was tested, and the switch fluorescence ratio was 0.983 ± 0.021. For GTAATAGAGG, the switch fluorescence ratio was 0.9774 ± 0.0096. For CTTCTGGGGA, the switch fluorescence ratio was 0.993 ± 0.02. TGTGTTATGT was tested, and the switch fluorescence ratio was 1.03 ± 0.038. Work on GCTAAAGGGG yielded a switch fluorescence ratio of 1.19 ± 0.31. TTTTATTTCA was tested, and the switch fluorescence ratio was 0.991 ± 0.021. Work on AGGCTGAGCG yielded a switch fluorescence ratio of 1.01 ± 0.022. CAAATAGATG was tested, and the switch fluorescence ratio was 1 ± 0.029. GGGAGGCGAG gave a switch fluorescence ratio of 1.016 ± 0.0011. Sequence AATCTTCATG has a switch fluorescence ratio of 0.997 ± 0.044. For TCTCTTTTTA, the switch fluorescence ratio was 1.02 ± 0.023. TTTGAGTTTG showed a switch fluorescence ratio of 1.009 ± 0.0056. Work on ATTATTCGGA yielded a switch fluorescence ratio of 1.008 ± 0.0027. TACAGGGCTG was tested, and the switch fluorescence ratio was 1.02 ± 0.057. Work on TCGGAGGGTT yielded a switch fluorescence ratio of 1.016 ± 0.0052. In the case of AGCGATTTTT, the switch fluorescence ratio is reported as 1.01 ± 0.053. GCTGGGTGCA gave a switch fluorescence ratio of 0.9719 ± 0.0016. Work on AAACTGATGA yielded a switch fluorescence ratio of 1.06 ± 0.024. TCTTTTTCTT showed a switch fluorescence ratio of 1.01 ± 0.033. Sequence GACTGAGGGG has a switch fluorescence ratio of 1.02 ± 0.05. With CCATTAGTTG the switch fluorescence ratio was 0.998 ± 0.02. In the case of GAGGTACAAA, the switch fluorescence ratio is reported as 1.013 ± 0.01. With GACATAAAGT the switch fluorescence ratio was 0.986 ± 0.014. Work on GCTAGGTTTG yielded a switch fluorescence ratio of 0.998 ± 0.054. Work on GTCGGGGTTA yielded a switch fluorescence ratio of 0.989 ± 0.036. In the case of AATGGGTAGT, the switch fluorescence ratio is reported as 0.991 ± 0.042. Sequence TCCTAGGTGT has a switch fluorescence ratio of 4 ± 0.28. TGAAAAACAC showed a switch fluorescence ratio of 1.12 ± 0.17. Sequence TCAGGAAAGG has a switch fluorescence ratio of 1.003 ± 0.0027. For TGGGTTTCCT, the switch fluorescence ratio was 0.987 ± 0.017. For CGGTAGGGGG, the switch fluorescence ratio was 1.02 ± 0.049. With GCAAAACA the switch fluorescence ratio was 1.3 ± 0.41. Sequence ATGGTGGAGG has a switch fluorescence ratio of 1.01 ± 0.024. For CTAGGTGGCT, the switch fluorescence ratio was 1.02 ± 0.073. Work on TCACCTTGTT yielded a switch fluorescence ratio of 1.03 ± 0.037. With CTAAATATTG the switch fluorescence ratio was 0.989 ± 0.015. For ATACTTTGGT, the switch fluorescence ratio was 0.9944 ± 0.0018. Sequence CTTTTTAGTC has a switch fluorescence ratio of 1.03 ± 0.013. With GGAGTAGGCT the switch fluorescence ratio was 0.938 ± 0.057. Sequence CAAGTTGACC has a switch fluorescence ratio of 1.01 ± 0.046. TAGTGGACGG showed a switch fluorescence ratio of 0.986 ± 0.034. GGGCAATCTT showed a switch fluorescence ratio of 1.119 ± 0.0083. In the case of GAGGTTAGAG, the switch fluorescence ratio is reported as 0.9796 ± 0.0026. Sequence ACTTTACTTA has a switch fluorescence ratio of 1.33 ± 0.02. With AATTGCTACC the switch fluorescence ratio was 1.07 ± 0.013. AAATCTGTAG gave a switch fluorescence ratio of 0.9849 ± 0.002. GAAGAGGGTG was tested, and the switch fluorescence ratio was 1.03 ± 0.022. TTGTTTGCAA showed a switch fluorescence ratio of 1.52 ± 0.74. With GATGCAGCGA the switch fluorescence ratio was 1.107 ± 0.011. TGGGTTTTGC was tested, and the switch fluorescence ratio was 0.994 ± 0.044. In the case of ACGTTTTACA, the switch fluorescence ratio is reported as 1.183 ± 0.0076. With ATTAGAGGGG the switch fluorescence ratio was 0.9862 ± 0.0067. Sequence TTAAATGTTT has a switch fluorescence ratio of 0.994 ± 0.015. In the case of ACATTTTGTT, the switch fluorescence ratio is reported as 0.972 ± 0.051. With GAATGGAGGT the switch fluorescence ratio was 1.01 ± 0.021. With AAGTTTAGAA the switch fluorescence ratio was 1 ± 0.012. In the case of GACTGTACTA, the switch fluorescence ratio is reported as 1.48 ± 0.075. In the case of AAGCTGAGAA, the switch fluorescence ratio is reported as 1.016 ± 0.0071. For AGTAGTTTTG, the switch fluorescence ratio was 0.98 ± 0.014. For GAATCTCGGA, the switch fluorescence ratio was 1.018 ± 0.0018. For TGTTTCCATG, the switch fluorescence ratio was 0.988 ± 0.016. AAATTAGCTT was tested, and the switch fluorescence ratio was 0.987 ± 0.084. In the case of GTAGGACTTG, the switch fluorescence ratio is reported as 0.953 ± 0.025. TGAATGAATT showed a switch fluorescence ratio of 0.997 ± 0.022. AACGTTAAAT showed a switch fluorescence ratio of 1.01 ± 0.037. ACGAGAGATT was tested, and the switch fluorescence ratio was 1.42 ± 0.48. Work on TAAAGGGGGC yielded a switch fluorescence ratio of 1.05 ± 0.017. GTTACTGGCC showed a switch fluorescence ratio of 1.01 ± 0.0068. TAAGTATGAC showed a switch fluorescence ratio of 0.982 ± 0.032. Sequence AAGGGGTAGT has a switch fluorescence ratio of 0.997 ± 0.025. GACCCTAGAT gave a switch fluorescence ratio of 1.008 ± 0.0036. ACTGGCAGC was tested, and the switch fluorescence ratio was 1.05 ± 0.017. Sequence AGTGACCCCT has a switch fluorescence ratio of 1.06 ± 0.035. With TTAACTTGAG the switch fluorescence ratio was 0.9831 ± 0.0047. Sequence GGAGGGCGGT has a switch fluorescence ratio of 0.9948 ± 0.0081. For GGGAGCTGCG, the switch fluorescence ratio was 1 ± 0.018. In the case of CGTCGATAAT, the switch fluorescence ratio is reported as 1.03 ± 0.035. TCAGGGGCGG showed a switch fluorescence ratio of 1.04 ± 0.096. Work on GCATAGGGGG yielded a switch fluorescence ratio of 1.03 ± 0.081. With AGCACTTTTC the switch fluorescence ratio was 1.0192 ± 0.00082. In the case of CAGGGGGCAC, the switch fluorescence ratio is reported as 1.05 ± 0.042.
